“And” between values parts separate entries of the source, which are not always exact repeats. Equal entries are not always repeated.
How the values were obtained:
[1] = biological target: T1, recombinant human CD38 his tagged (extracellular domain) (human, UniProt P28907 43-300); assay: Octet BLI, affinity, monovalent human CD38-HIS; IgG1
T1 construct: also called rhCD38; rhCD38-his; not shown: Histidine tag

[2] = biological target: T2, human CD38 (full length, on cells) (human, UniProt P28907 1-300); assay: cell-based or functional assay
[3] = biological target: T2, human CD38 (full length, on cells); assay: cell-based or functional assay; remark: listed apart in the source
[4] = biological target: T1, recombinant human CD38 his tagged …; assay: summary, human CD38 extracellular protein
[5] = biological target: T1, recombinant human CD38 his tagged …; assay: Octet BLI affinity, rhCD38; Octet value of Table 5 (variant comparison); Table 1A gives 3.38E-09 for IgG1
[6] = biological target: T1, recombinant human CD38 his tagged …; assay: SPR Biacore 2000; IgG1 captured, rhCD38-his as analyte
Experimental: (§1) Anti-human antibody was initially immobilised across all flow cells in analysis buffer (pH 7.4, 10mM HEPES, 150mM NaCl, 3mM EDTA, 0.05% Tween 20) to an RU of between 12,000-14,000 over 10 minutes. […] Dissociation was performed in analysis buffer over 10 minutes. Regeneration steps between sample concentrations were performed in 3M MgCl₂, three times for 0.5 minutes. A flow rate of 25 μl/min was maintained throughout the process. Kinetics data were fit using a global fit on the analysis software provided by Biacore with reference subtraction.

[7] = biological target: T2, human CD38 (full length, on cells); assay: flow cytometry, binding to Daudi cells
[8] = biological target: T1, recombinant human CD38 his tagged …; assay: SPR Biacore affinity, rhCD38-his
Experimental: as §1

B1: aCD38-b-329 (human IgG1) (antibody, V domains shown)
VH: QLQLQESGPGLVKPSETLSLTCTVSGGSISSSDYYWGWIRQPPGKGLEWIGSIYYSGSTYYNPSLKSRVTISVDTSKNQFSLKLSSVTAADTAVYYCARGQYSSGWYAYPFDMWGQGTMVTVSS
VL: EIVLTQSPGTLSLSPGERATLSCRASQSVRSSYLAWYQQKPGQAPRLLIYGASSRATGIPDRFSGSGSGTDFTLTISRLEPEDFAVYYCQQDGAVFTFGGGTKVEIK
notes: Human IgG1
Kd [1]: 3.38 nM
ADCC target lysis EC50 [2]: 6.2 ng/mL
ADCC target lysis, max. % lysis [2]: 49%
ADCC EC50, Daudi target cells [3]: 11 ng/mL and 6.2 ng/mL
Kd [4]: ~1 nM
Kd [5]: 2.38 nM
Kd [6]: 0.62 nM
EC50 [7]: 734 ng/mL
Max MFI [7]: 2510 MFI
Kd [8]: 0.62 nM

Reference: patent US20200190209A1 (BLACK BELT THERAPEUTICS, published 2020)
